According to patent publication US20060073571A1:

Molecular target: recombinant chimeric hLH-R-hCG-β fusion protein (full-length human lutropin hormone receptor, Arg-Ser linker, full-length human chorionic gonadotropin-β) (human)
Experiment: cell-based or functional assay

Chain of recombinant chimeric hLH-R-hCG-β fusion protein (full-length human lutropin hormone receptor, Arg-Ser linker, full-length human chorionic gonadotropin-β) (human) (chain, as listed by the source mutant limits assumed): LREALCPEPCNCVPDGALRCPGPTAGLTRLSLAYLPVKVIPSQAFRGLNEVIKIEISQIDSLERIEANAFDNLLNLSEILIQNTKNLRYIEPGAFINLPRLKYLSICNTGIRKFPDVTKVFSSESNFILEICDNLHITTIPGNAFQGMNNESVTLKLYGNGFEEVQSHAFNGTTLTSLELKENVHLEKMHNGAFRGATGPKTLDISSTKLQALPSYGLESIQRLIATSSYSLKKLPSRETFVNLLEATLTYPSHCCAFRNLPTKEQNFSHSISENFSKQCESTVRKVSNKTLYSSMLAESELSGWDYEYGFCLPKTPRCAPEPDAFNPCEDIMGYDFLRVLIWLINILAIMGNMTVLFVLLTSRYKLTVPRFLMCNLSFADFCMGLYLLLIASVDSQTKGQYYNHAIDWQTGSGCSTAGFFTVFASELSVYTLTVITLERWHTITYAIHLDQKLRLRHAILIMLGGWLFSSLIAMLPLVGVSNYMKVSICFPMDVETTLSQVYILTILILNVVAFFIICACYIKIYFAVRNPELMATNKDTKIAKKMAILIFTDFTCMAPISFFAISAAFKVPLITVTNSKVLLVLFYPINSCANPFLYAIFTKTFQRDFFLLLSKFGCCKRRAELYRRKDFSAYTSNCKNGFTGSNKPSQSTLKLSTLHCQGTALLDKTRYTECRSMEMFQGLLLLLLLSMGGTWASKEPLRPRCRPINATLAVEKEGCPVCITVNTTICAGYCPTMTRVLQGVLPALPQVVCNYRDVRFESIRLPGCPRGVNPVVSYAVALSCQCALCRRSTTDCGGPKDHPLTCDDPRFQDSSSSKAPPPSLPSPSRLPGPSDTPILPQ

intracellular cAMP in transfected Sf9 cells in the absence of hCG: 13.2 pmol/L
Substance: hCG-β component of the chimeric hLH-R-hCG-β protein (full-length human chorionic gonadotropin-β subunit) (from UniProt P0DN86 21-165) (ligand)
